Assay [1] has as its target Abeta 1-40 monomer (UniProt P05067). The assay can be described thus: MPA bead capture, Abeta 1-40 read-out of the CSF sample (noise).
Assay [2] concerns the target Abeta (1-42) aggregates from Alzheimer's Disease Brain Homogenate (human) (UniProt P05067). The assay can be described thus: MPA, AD brain homogenate in plasma, Abeta(1-42) ELISA.
For assay [3] the target is unchanged. The assay can be described thus: MPA, AD brain homogenate in CSF, Abeta(1-42) ELISA.
The target of assay [4] is Abeta 1-42 globulomer (UniProt P05067). The assay can be described thus: MPA bead capture, CSF + 1 ng/mL globulomer, Abeta immunoassay.
The target is the same in assay [5]. Kind of assay: 42 (globulomer) RLU over 40 (Abeta 1-40 monomer) RLU.

As to KKKKKK (peptide), the average RLU (40) in assay [1] was 197 RLU.

With peptoid +++++++, the limit of detection in assay [2] came to 2.5 mL/assay; in assay [3], 1.6 mL/assay. Regarding link-KKKFKF (peptide), the average RLU (40) in assay [1] is 279 RLU. As for AAKKKA (peptide), the average RLU (40) in assay [1] is 159 RLU. In assay [2], “biotinylated PSR1 (+++A+A) on streptavidin magnetic beads” returned a limit of detection of 3.8 mL/assay. Regarding link-kkkfkf (peptide), the average RLU (40) in assay [1] came out at 254 RLU. For the same substance, the average RLU (42) in assay [4] came out at 1600 RLU. Further, the 42:40 ratio in assay [5] was found to be 6.3. In the case of ANFFAHSS (peptide), the average RLU (40) in assay [1] was 543 RLU. As to link-FKFKKK (peptide), the average RLU (40) in assay [1] came to 198 RLU. Still for that read-out and setting: with AKKKKK (peptide) the figure was 176 RLU; with KKKFKF-link (peptide), 192 RLU; with AAAKAA (peptide), 134 RLU. On the same count and under the same terms, with AKKKKA (peptide) the figure was 156 RLU; with AAKKAA (peptide), 147 RLU.

For the substance DFKLNFKF (peptide), in assay [1], the average RLU (40) was found to be 260 RLU.

The values are drawn from US20130109581A1, “POSITIVELY CHARGED SPECIES AS BINDING REAGENTS IN THE SEPARATION OF PROTEIN AGGREGATES FROM MONOMERS” (priority 2009, published 2013).
